Measured values taken from publication PMC11103505, “AXL-specific single domain antibodies show diagnostic potential and anti-tumor activity in Acute Myeloid Leukemia” (Theranostics, 2024).
Changes are numbered by the printed parent chain.

B1: anti-AXL single domain antibody sdAb25 (VHH)
VHH: QVQLQESGGGLVQPGGSLRLSCVASGSIFSIYAMGWYRQAPGKQRELVAGISSGGSTNYADSVKGRFTISRDNAKNTVYLQMNSLKPEDTAVYYCNYDLVEAVTGEYDYWGQGTQVTVSS
notes: source: E. coli WK6, periplasmic expression, purified (IMAC, SEC)
B2: anti-AXL single domain antibody sdAb4 (VHH)
VHH: B1 VHH with E101K
notes: as for B1
B3: anti-AXL single domain antibody sdAb12 (VHH)
VHH: B1 VHH with Q13K
notes: as for B1
B4: recombinant mouse AXL protein (receptor, UniProt Q00993 19-445, looked up)
chain: AHKDTQTEAGSPFVGNPGNITGARGLTGTLRCELQVQGEPPEVVWLRDGQILELADNTQTQVPLGEDWQDEWKVVSQLRISALQLSDAGEYQCMVHLEGRTFVSQPGFVGLEGLPYFLEEPEDKAVPANTPFNLSCQAQGPPEPVTLLWLQDAVPLAPVTGHSSQHSLQTPGLNKTSSFSCEAHNAKGVTTSRTATITVLPQRPHHLHVVSRQPTELEVAWTPGLSGIYPLTHCNLQAVLSDDGVGIWLGKSDPPEDPLTLQVSVPPHQLRLEKLLPHTPYHIRISCSSSQGPSPWTHWLPVETTEGVPLGPPENVSAMRNGSQVLVRWQEPRVPLQGTLLGYRLAYRGQDTPEVLMDIGLTREVTLELRGDRPVANLTVSVTAYTSAGDGPWSLPVPLEPWRPGQGQPLHHLVSEPPPRAFSWPWW
notes: AXL receptor tyrosine kinase, mouse; recombinant protein R&D Systems #854-AX; also called mouse Axl antigen; recombinant mouse antigen; source: bought: R&D Systems (#854-AX)
B5: anti-AXL single domain antibody sdAb19 (VHH)
VHH: QVQLQESGGGMVQPGGSLRLSCAASGFTFTSYDMTWLRQTPGKGPEWVSTISTGGLRTYYGNSVKGRFIISRDNTKNTLYLQMNSLKPEDTALYYCARGPFTVADPRRGQGTQVTVSS
notes: as for B1
B6: anti-AXL single domain antibody sdAb20 (VHH)
VHH: B5 VHH with M11L, Q13R
notes: alpaca-derived; Re-cloned into pHEN6, which encodes the C-terminal His6 tag; also called lead compound; monovalent sdAb20; source: E. coli WK6, periplasmic expression, purified (IMAC, SEC); not shown: His6, C-terminal, kept
B7: anti-AXL single domain antibody sdAb20 (VHH)
VHH: B5 VHH with M11L, Q13R
notes: re-cloned into pHEN6 (C-terminal His6 tag), monomeric format; source: E. coli WK6, periplasmic expression, purified (IMAC, SEC)

Key:
[1] = molecular target: B4; experiment: SPR; Biacore-T200; recombinant AXL protein immobilised on CM5 chip by amine coupling (EDC/NHS); sdAbs injected at ten concentrations from 1.9 to 500 nM; 25°C; HBS (20 mM HEPES pH 7.4, 150 mM NaCl, 3.4 mM EDTA, 0.005% Tween 20); 10 µL/min; 1:1 binding model; details: both partners purified
[2] = molecular target: T1, recombinant human AXL protein (Homo sapiens, UniProt P30530); experiment: as above; details: both partners purified
T1 construct: AXL receptor tyrosine kinase, human; recombinant protein R&D Systems #154-AL; also called hAXL; AXL - Homo sapiens; source: bought: R&D Systems (#154-AL)

[3] = molecular target: T2, [111In]In-DTPA-sdAb20-Fc (alpaca (Vicugna pacos)); experiment: ELISA; radio-ELISA: recombinant mouse AXL coated on Lockwell C8 Maxisorp plates; serial dilution of [111In]In-DTPA-sdAb-Fc in PBS + 1% FBS; bound radioactivity by gamma counter; specific binding = total minus non-specific binding; details: both partners purified
T2 construct: as the VHH of Dm1; the His6 tag of sdAb20 was replaced with the mIgG2a-Fc region; about 80 kDa; also called [111In] anti-AXL sdAb20-Fc; 111In-labeled sdAb20-Fc; source: DTPA-conjugated and 111In-labelled, purified (SEC, NAP-5); not shown: Fc (mouse IgG2a), C-terminal, kept

[4] = molecular target: T3, recombinant human AXL protein (human, UniProt P30530); experiment: SPR; competition assay for blocking of hAXL and hGAS6; which partner was immobilised is not shown; details: both partners purified
T3 construct: receptor tyrosine kinase AXL, human, recombinant protein from R&D Systems; also called hAXL; source: bought: R&D Systems

[5] = molecular target: T4, recombinant mouse AXL protein (Mus musculus, UniProt Q00993); experiment: SPR; Biacore T200; recombinant AXL immobilised on CM5 chip by amine coupling; seven serial dilutions of sdAb flowed over; 25 °C; HBS (20 mM HEPES pH 7.4, 150 mM NaCl, 3.4 mM EDTA, 0.005% Tween 20); 1:1 binding model; details: both partners purified
T4 construct: receptor tyrosine kinase AXL, mouse, recombinant protein from R&D Systems; also called recombinant mouse antigen; source: bought: R&D Systems

[6] = molecular target: T5, AXL on AXL-overexpressing murine C1498 AML cells (Mus musculus, UniProt Q00993); experiment: flow cytometry on cells; sdAb20 or sdAb20-Fc on AXL-expressing human and murine cancer cell lines, compared with the irrelevant control R3B23 or R3B23-Fc; read-out MFI; details: one partner purified
T5 construct: receptor tyrosine kinase AXL overexpressed in murine C1498 cells by lentiviral transduction; also called AXL^high C1498; source: C1498 cells, lentivirally transduced and positively selected, on cells

T1 sequence (P30530 26-451): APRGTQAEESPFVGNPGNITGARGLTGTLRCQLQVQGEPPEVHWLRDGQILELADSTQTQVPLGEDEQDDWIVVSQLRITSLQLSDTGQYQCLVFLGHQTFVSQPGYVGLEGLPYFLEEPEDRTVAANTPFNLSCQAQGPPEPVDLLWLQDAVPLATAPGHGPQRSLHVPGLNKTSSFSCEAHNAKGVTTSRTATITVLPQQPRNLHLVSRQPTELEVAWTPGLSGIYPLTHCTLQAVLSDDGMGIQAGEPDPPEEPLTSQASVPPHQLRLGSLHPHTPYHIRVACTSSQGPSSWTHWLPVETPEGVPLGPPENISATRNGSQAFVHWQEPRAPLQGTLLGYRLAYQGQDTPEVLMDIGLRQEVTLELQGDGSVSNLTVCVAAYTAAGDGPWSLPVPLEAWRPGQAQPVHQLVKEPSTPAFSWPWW
T3 sequence (P30530 26-451): as above

| binding result [1] | binding result [2] | Binder | other results |
| --- | --- | --- | --- |
| binds | binds | B1 | – |
| binds | binds | B2 | – |
| binds | binds | B3 | – |
| – | – | B4 | Kd [3]: 11.9 nM |
| binds | – | B5 | – |
| – | – | B6 | IC50 [4]: 119 nM; binding result [5]: binds; binding result [6]: binds |
| binds | – | B7 | – |
